Laboratory results: publication PMC3437207, “G-quadruplex recognition activities of E. Coli MutS”
Substitutions are numbered along the chain they refer to.

T1: MutS F36A (Escherichia coli, UniProt P23909 1-853, F36A)
T1 sequence: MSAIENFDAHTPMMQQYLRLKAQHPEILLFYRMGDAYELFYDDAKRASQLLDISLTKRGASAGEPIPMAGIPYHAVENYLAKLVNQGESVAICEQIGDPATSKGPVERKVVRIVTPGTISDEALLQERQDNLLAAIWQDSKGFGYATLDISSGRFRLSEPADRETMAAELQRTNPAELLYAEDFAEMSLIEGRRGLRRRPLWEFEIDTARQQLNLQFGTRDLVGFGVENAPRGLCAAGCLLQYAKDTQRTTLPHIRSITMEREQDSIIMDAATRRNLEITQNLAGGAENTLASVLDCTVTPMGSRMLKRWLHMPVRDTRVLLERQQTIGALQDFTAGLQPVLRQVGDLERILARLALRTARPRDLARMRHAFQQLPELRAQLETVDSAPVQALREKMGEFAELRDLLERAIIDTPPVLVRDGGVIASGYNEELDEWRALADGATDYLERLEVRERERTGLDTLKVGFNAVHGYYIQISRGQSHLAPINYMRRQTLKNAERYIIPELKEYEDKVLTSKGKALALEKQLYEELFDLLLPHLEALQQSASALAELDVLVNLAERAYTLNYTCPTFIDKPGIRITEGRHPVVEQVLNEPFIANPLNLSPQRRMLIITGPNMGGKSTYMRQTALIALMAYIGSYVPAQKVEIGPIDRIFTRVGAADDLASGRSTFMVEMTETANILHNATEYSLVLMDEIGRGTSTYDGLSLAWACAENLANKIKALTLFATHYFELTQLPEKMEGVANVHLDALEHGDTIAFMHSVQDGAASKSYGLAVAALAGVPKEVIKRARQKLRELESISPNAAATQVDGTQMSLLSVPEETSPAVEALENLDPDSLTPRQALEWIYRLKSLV

B1: G-T mismatch heteroduplex (dsDNA)
DNA 1: CTAGCAAGCTTTCGATTCTAGAAATTCGGC
DNA 2: GCCGAATTTCTAGAATTGAAAGCTTGCTAG
B2: Homoduplex (dsDNA)
DNA 1: B1 DNA 1 with G14A
DNA 2: B1 DNA 2

What was measured:
[1] = target: T1, MutS F36A; assay: EMSA; 19-150 nM protein; no nucleotide; 5 mM Mg2+; 20 mM Tris pH 7.6, 5 mM MgCl2, 1 mM DTT, 50 ug/ml BSA, 10 mM KCl, 200 fmol homoduplex competitor, 10-20 fmol labeled DNA in 20 ul; 6% native PAGE 0.5X TBE with; conditions: protein: recombinant; tags: His; chain copies: 2; label: 5' 32P; blunt; single G-T mismatch at position 14 of strand 1
[2] = target: T1, MutS F36A; assay: EMSA; 38-150 nM protein; 20 mM Tris pH 7.6, 5 mM MgCl2, 1 mM DTT, 50 ug/ml BSA, 10 mM KCl, 200 fmol homoduplex competitor, 10-20 fmol labeled DNA in 20 ul; 6% native PAGE 0.5X TBE with; conditions: protein: recombinant; tags: His; chain copies: 2; label: 32P; blunt

| Binder | binding result [1] | binding result [2] |
| --- | --- | --- |
| B1 | no binding |  |
| B2 |  | no binding |
